Data as given in patent US20090124570A1, “Methods and Compositions for Facilitating Tissue Repair and Diagnosing, Preventing, and Treating Fibrosis” (University of Maryland, Baltimore, priority 2007, published 2009).
Entries after “also recorded” stand apart in the source; their conditions may differ.

Assays:
[1] = system: primary pulmonary fibroblasts; settings: as reported by Luzina et al. 2006; cited from earlier work
COL1A2 promoter = assay: Collagen promoter-CAT reporter construct in transfected fibroblasts; assay type: cell-based, human
Protocol: Production of collagen was measured in cell cultures utilizing the metabolic labeling of collagen with ^14C-proline as described by Luzina. I. G. Luzina et al. (2006) Am J Respir Cell Mol Biol. 35:298-305; I. G. Luzina et al. (2006) Arthritis Rheum. 54: 2643-2655. Briefly, fibroblast monolayers were pulsed with L-[U-^14C]-proline (Amersham Biosciences, Piscataway, N.J.) at 1 μCi/ml for the final 12 hours of incubation. Purified bacterial collagenase type III was purchased from Sigma Aldrich (St. Louis, Mo.). Fibroblasts were then ruptured by repeated freeze-thawing, and part of each sample digested with collagenase type III. The samples were pelleted with 20% TCA containing 0.1% L-proline, and then the pellets were resuspended and washed twice with 5% TCA and 95% ice-cold ethanol. The samples were assayed in a liquid scintillation counter in order to determine the amount of collagenase-digestible and non-digestible ^14C-labeled protein. Alternatively, collagen protein levels in cell culture supernatants were measured in Western blotting assays as described above. The activity of the COL1A2 promoter was measured in primary fibroblasts transfected with collagen promoter-chloramphenicol acetyltransferase (CAT) reporter constructs as described by Luzina. I. G. Luzina et al. (2006) Am J Respir Cell Mol Biol. 35:298-305. […]

[2] = system: matrix metalloproteinase 2 (MMP2); assay: MMP2 levels in primary fibroblast cultures; assay type: cell-based, human; settings: primary fibroblast cultures stimulated with recombinant BIGH3
[3] = system: primary pulmonary fibroblasts; assay: Collagen production in primary fibroblast cultures (14C-proline incorporation, Western blotting); assay type: cell-based, human; settings: primary fibroblasts stimulated with rhBIGH3, various doses and times, 14C-proline incorporation and Western blotting
Protocol: (§1) Preparation of cell lysates, immunoprecipitation of BIGH3 protein, normalization of protein concentration in the samples with BioRad assays, electrophoretic separation and Western blotting were performed as previously described by Atamas. S. P. Atamas et al. (2003) Am J Respir Cell Mol Biol. 29:743-749. Goat antibodies for BIGH3 were purchased from R&D Systems (Minneapolis, Minn.). Goat antibodies for MMP14 were purchased from Santa-Cruz Biotechnology (Santa Cruz, Calif.). Western blotting assays for collagen were performed using rabbit affinity purified anti-collagen type I antibody (Rockland, Gilbertsville, Pa.).
Production of collagen was measured in cell cultures utilizing the metabolic labeling of collagen with ^14C-proline as described by Luzina. I. G. Luzina et al. (2006) Am J Respir Cell Mol Biol. 35:298-305; I. G. Luzina et al. (2006) Arthritis Rheum. 54: 2643-2655. […] Alternatively, collagen protein levels in cell culture supernatants were measured in Western blotting assays as described above. The activity of the COL1A2 promoter was measured in primary fibroblasts transfected with collagen promoter-chloramphenicol acetyltransferase (CAT) reporter constructs as described by Luzina. […]
To test this possibility, fibroblast cultures were incubated for various times with various doses of recombinant human BIGH3 (rhBIGH3), and the levels of collagen accumulation were measured. […]

Smad3/4, Sp1, AP1, Ets = assay: Transcription factor array, DNA binding of collagen promoter regulators in fibroblasts; assay type: cell-based, human; settings: BIGH3-stimulated vs control fibroblasts, transcription factor arrays
Protocol: Further experiments were performed to determine whether the increase in collagen levels stimulated by BIGH3 was due to transcriptional upregulation of the collagen gene expression.
(§2) Nuclear extracts from BIGH3-activated and control fibroblast cultures were prepared using nuclear extraction kit from Active Motif (Carlsbad, Calif.) and adjusted for total protein content using Bio-Rad assays. DNA binding by 345 different transcription factors was evaluated using protein/DNA TranSignal™ system (Panomics, Redwood City, Calif.), following the manufacturer's recommendations.

p53 = assay: Transcription factor array, DNA binding by p53 in fibroblasts; assay type: cell-based, human; settings: fibroblasts stimulated with 300 ng/ml rhBIGH3
Protocol: as §2

COL1A2 mRNA = assay: Real-time PCR of COL1A2 mRNA in fibroblasts; assay type: cell-based, human; settings: BIGH3-treated vs control fibroblast cultures
Protocol: Total RNA purification, reverse transcription, and real-time PCR were performed using LightCycler (Roche, Indianapolis, Ind.), as previously described by Atamas. S. P. Atamas et al. (2003) Am J Respir Cell Mol Biol. 29:743-749. Quantification of internal control 18S ribosomal RNA was performed as reported previously by Luzina. I. G. Luzina et al. (2006) J Cell Physiol. 206:221-228. The PCR reaction mixture included the recommended components of the FastStart DNA Master Hybridization Probes Hot Start Reaction Mix (Roche, Indianapolis, Ind.). The fold difference in gene expression relative to 18S ribosomal RNA between treated and untreated cultures was calculated using the 2^−ΔΔCt method. I. G. Luzina et al. (2006) Arthritis Rheum. 54: 2643-2655. The primers and the hybridization probes for COL1A2 mRNA were designed and prepared by TIB Molbiol (Adelphia, N.J.). The primers for COL1A2 mRNA were: forward, 5′-GATGGTGAAGATGGTCCCACAGG-3′ (SEQ ID NO: 1) and reverse, 5′-GGTCGTCCGGGTTTTCCAGGGT-3′ (SEQ ID NO: 2). The hybridization probes were labeled with fluorescein at the 3′-terminus (3FL) of one probe and with LightCycler Red at the 5′-terminus (5LC) of the other probe. The probes were 3FL 5′-TTCCAAGGACCTGCTGGTGAGCCT-3′ (SEQ ID NO: 3) and 5LC 5′-TGAACCTGGTCAAACTGGTCCTGCAG-3′ (SEQ ID NO: 4). […]

MMP14 = assay: Western blotting for MMP14 protein in primary fibroblasts; assay type: cell-based, human; settings: fibroblasts with 300 ng/ml rhBIGH3 for 24 h or 48 h
Protocol: as §1
Experiments were performed to determine whether BIGH3 upregulates collagen levels in fibroblast cultures by attenuating collagen turnover. To address such a possibility, experiments were performed in which primary fibroblasts were incubated for 6 h with or without 300 ng/ml BIGH3. The expression levels of 84 genes related to connective tissue biology were analyzed using reverse transcriptase—real time PCR approach (RT^2 Profiler™ SuperArray, Frederick, Md.). […] These experiments were repeated on three independent occasions with primary fibroblast cultures from different donors, with consistent results. MMP14 is a critical factor for collagen turnover by fibroblasts. H. Lee et al. (2006) Mol Biol Cell. 17:4812-4826. […]

PU.1 = assay: Transcription factor array, DNA binding by PU.1 in fibroblasts; assay type: cell-based, human; settings: fibroblasts stimulated with 300 ng/ml rhBIGH3
Protocol: as §2

Molecule	concentration of active TGF-β required for upregulation of collagen production [1]	response of collagen promoter-CAT reporter construct (COL1A2 promoter)	MMP2 levels [2]	collagen protein levels [3]	collagen protein levels ([3]; listed as recombinant BIGH3)	DNA binding activity of Smad3/4, Sp1, AP1, Ets (Smad3/4, Sp1, AP1, Ets)	DNA binding by p53 (p53)	DNA binding by p53 (p53; listed as BIGH3)	collagen (COL1A2) mRNA steady-state levels (COL1A2 mRNA)	MMP14 protein levels (MMP14)	DNA binding by PU.1 (PU.1)	DNA binding by PU.1 (PU.1; listed as BIGH3)
TGF-β [reference compound]	at least 500 pg/ml	responsive										
rhBIGH3: recombinant human BIGH3 (TGFBI, keratoepithelin), a 68 kDa extracellular matrix protein (protein, UniProt Q15582 24-683, looked up) Transforming growth …: GPAKSPYQLVLQHSRLRGRQHGPNVCAVQKVIGTNRKYFTNCKQWYQRKICGKSTVISYECCPGYEKVPGEKGCPAALPLSNLYETLGVVGSTTTQLYTDRTEKLRPEMEGPGSFTIFAPSNEAWASLPAEVLDSLVSNVNIELLNALRYHMVGRRVLTDELKHGMTLTSMYQNSNIQIHHYPNGIVTVNCARLLKADHHATNGVVHLIDKVISTITNNIQQIIEIEDTFETLRAAVAASGLNTMLEGNGQYTLLAPTNEAFEKIPSETLNRILGDPEALRDLLNNHILKSAMCAEAIVAGLSVETLEGTTLEVGCSGDMLTINGKAIISNKDILATNGVIHYIDELLIPDSAKTLFELAAESDVSTAIDLFRQAGLGNHLSGSERLTLLAPLNSVFKDGTPPIDAHTRNLLRNHIIKDQLASKYLYHGQTLETLGGKKLRVFVYRNSLCIENSCIAAHDKRGRYGTLFTMDRVLTPPMGTVMDVLKGDNRFSMLVAAIQSAGLTETLNREGVYTVFAPTNEAFRALPPRERSRLLGDAKELANILKYHIGDEILVSGGIGALVRLKSLQGDKLEVSLKNNVVSVNKEPVAEPDIMATNGVVHVITNVLQPPANRPQERGDELADSALEIFKQASAFSRASQRSVRLAPVYQKLLERMKH		no differences were observed; also recorded: non-responsive	downregulation	directly regulated collagen production; also recorded: Increases in collagen protein levels	upregulation of collagen protein	no differences were detected; also recorded: no increase in the activity	downregulation	decreased	no differences in steady-state levels; also recorded: did not stimulate an increase in collagen mRNA	decreased significantly	significant upregulation	increased
